Molecular target: V1ΔC (S. cerevisiae, UniProt P17255 2-283; P17255 738-1071; P16140 1-517; P32610 1-256; P22203 1-233; P39111 …)
Test: BLI

Kd: ~0.7 nM
B1: MBP-C (natural protein, S. cerevisiae, UniProt P31412 1-392, looked up)
chain: MATALYTANDFILISLPQNAQPVTAPGSKTDSWFNETLIGGRAFVSDFKIPEFKIGSLDTLIVESEELSKVDNQIGASIGKIIEILQGLNETSTNAYRTLPINNMPVPEYLENFQWQTRKFKLDKSIKDLITLISNESSQLDADVRATYANYNSAKTNLAAAERKKTGDLSVRSLHDIVKPEDFVLNSEHLTTVLVAVPKSLKSDFEKSYETLSKNVVPASASVIAEDAEYVLFNVHLFKKNVQEFTTAAREKKFIPREFNYSEELIDQLKKEHDSAASLEQSLRVQLVRLAKTAYVDVFINWFHIKALRVYVESVLRYGLPPHFNIKIIAVPPKNLSKCKSELIDAFGFLGGNAFMKDKKGKINKQDTSLHQYASLVDTEYEPFVMYIINL

From article doi:10.1101/391656 (bioRxiv, 2018)
